Results: publication doi:10.1101/2025.03.26.645438

Biological target: Human GLP1R protein (human) (UniProt P43220)
Sequence (P43220 24-463): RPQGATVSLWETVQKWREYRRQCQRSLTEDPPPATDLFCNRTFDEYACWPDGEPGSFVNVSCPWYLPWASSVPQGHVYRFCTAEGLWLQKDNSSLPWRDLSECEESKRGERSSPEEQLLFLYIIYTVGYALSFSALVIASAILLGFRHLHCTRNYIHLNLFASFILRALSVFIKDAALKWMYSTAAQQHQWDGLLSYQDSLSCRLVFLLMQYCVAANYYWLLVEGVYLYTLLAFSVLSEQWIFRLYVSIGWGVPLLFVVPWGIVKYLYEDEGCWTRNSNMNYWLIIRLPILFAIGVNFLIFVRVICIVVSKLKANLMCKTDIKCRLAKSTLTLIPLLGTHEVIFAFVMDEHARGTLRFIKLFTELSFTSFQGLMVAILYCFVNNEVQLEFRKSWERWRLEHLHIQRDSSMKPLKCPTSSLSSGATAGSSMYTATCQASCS

cAMP accumulation (HTRF) in HEK293 cells stably expressing human GLP-1R, EC50: 0.019 nM
Substance: Semaglutide (peptide)
